Results: patent publication US20260242478A1 (published 2026)

B1: Phage-220 (peptide)
peptide: FDFCPTTMWTYCQH
notes: tested as crude clonal phage supernatant
B2: Phage-212 (peptide)
peptide: MDWCPRAMWDKCFF
notes: as for B1
B3: Phage-318 (peptide)
peptide: MDWCPMFLWDECFN
notes: Clonal phage of the Peptide-9 library; also called the position column gives F at position 7)
B4: Phage-317 (peptide)
peptide: MDWCPRHLWHECFT
notes: Clonal phage of the Peptide-9 library
B5: Phage-311 (peptide)
peptide: MDWCPRDLWYQCFN
notes: as for B4
B6: Phage-207 (peptide)
peptide: MDWCPRAMWHECFY
notes: as for B1
B7: Phage-314 (peptide)
peptide: MDWCPIHLWNECFN
notes: as for B4
B8: Phage-219 (peptide)
peptide: NYWCPSSMWNRCLH
notes: as for B1
B9: Phage-310 (peptide)
peptide: MDWCPRDLWDECFN
notes: as for B4
B10: Phage-210 (peptide)
peptide: MDWCPRDMWFECFA
notes: as for B1
B11: Phage-324 (peptide)
peptide: MDWCPRHLWYECFS
notes: as for B4
B12: Phage-217 (peptide)
peptide: MDWCPWDMWDKCFN
notes: as for B1
B13: Phage-320 (peptide)
peptide: MDWCPTYLWNECFN
notes: as for B4
B14: Phage-313 (peptide)
peptide: MDWCPRSLWNYCFN
notes: as for B4
B15: Phage-316 (peptide)
peptide: MDWCPRSLWNYCFA
notes: as for B4
B16: Phage-222 (peptide)
peptide: MDWCPRDQWHNCFN
notes: as for B1
B17: Phage-221 (peptide)
peptide: TTWCPTSMWLHCFD
notes: as for B1
B18: Phage-218 (peptide)
peptide: TFGCPTTMWNRCFA
notes: as for B1
B19: Phage-209 (peptide)
peptide: IDWCPQDMWFYCFN
notes: as for B1
B20: Phage-208 (peptide)
peptide: MDWCPTDMWIVCFA
notes: as for B1
B21: Phage-216 (peptide)
peptide: MDWCPMNMWYQCFN
notes: as for B1
B22: Phage-215 (peptide)
peptide: MDWCPRYMWNECFN
notes: as for B1
B23: Phage-325 (peptide)
peptide: MDWCPAYLWDECFA
notes: as for B4
B24: Phage-326 (peptide)
peptide: MFWCPITLWNECFN
notes: as for B4
B25: Phage-322 (peptide)
peptide: MDWCPRHLWIECFN
notes: as for B4
B26: Phage-319 (peptide)
peptide: MSWCPRDLWHLCFF
notes: as for B4
B27: Phage-214 (peptide)
peptide: MDWCPTYMWSECFN
notes: as for B1
B28: Phage-321 (peptide)
peptide: MDWCPRDLWYVCFA
notes: as for B4
B29: Phage-205 (peptide)
peptide: MDWCPTDMWHHCFL
notes: as for B1
B30: Phage-327 (peptide)
peptide: MHWCPRDLWHVCFN
notes: as for B4
B31: Phage-213 (peptide)
peptide: MNWCPSYMWDQCFA
notes: as for B1
B32: Phage-323 (peptide)
peptide: MDWCPTYLWNVCFA
notes: as for B4
B33: Phage-206 (peptide)
peptide: IHWCPINMWDKCYN
notes: as for B1
B34: Phage-204 (peptide)
peptide: MDWCPRHMWNVCFS
notes: as for B1
B35: Phage-315 (peptide)
peptide: MDWCPTYLWHVCFS
notes: as for B4
B36: Phage-328 (peptide)
peptide: MDWCPRALWDHCFN
notes: as for B4

Legend:
[1] = biological target: T1, anti-CD28 scFv (VH - linker 1 - VL) (biotinylated (site not stated)); test: clonal phage ELISA; biotinylated anti-CD28 scFv on neutravidin plate, anti-M13-HRP detection;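 note: crude supernatants of phage clones were tested in wells pretreated with blocking buffer either alone or supplemented with soluble CD28 protein before phage addition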
T1 construct: Captured as biotinylated scFv on neutravidin coated plates in the clonal phage ELISA

[2] = biological target: T1, anti-CD28 scFv (VH - linker 1 - VL); test: clonal phage ELISA; captured anti-CD28 scFv pre-incubated with soluble CD28 (competitor), anti-M13-HRP detection;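 note: crude clonal phage supernatants added to wells pretreated with soluble CD28 in blocking buffer, compared against wells given blocking buffer only, then bound phage measured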
Description: Clonal phage were harvested as crude supernatants and screened via standard enzyme linked immunosorbent assays (ELISAs). […] Prior to the addition of clonal phage, wells were incubated with blocking buffer and CD28 soluble protein or blocking buffer alone. Without washing or aspirating, clonal phage supernatants were then added to the wells and incubated for a short time. Wells were then washed followed by detection of bound phage using a horse radish peroxidase conjugated anti-M13 antibody.

[3] = biological target: T2, Anti-CD28 scFv (VH - linker 1 - VL) (biotinylated (site not stated)); test: phage ELISA as above; wells pre-incubated with soluble CD28 as competitor;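 note: crude clonal phage supernatants tested, with bound phage detected by HRP-conjugated anti-M13 antibody, and reference wells given blocking buffer without CD28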
T2 construct: Biotinylated anti-CD28 scFv captured on neutravidin coated plates in the panning ELISA

[4] = biological target: T2, Anti-CD28 scFv (VH - linker 1 - VL); test: phage ELISA; biotinylated anti-CD28 scFv on neutravidin plate, clonal phage supernatant, anti-M13-HRP;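 note: before the phage were added, wells were pre-incubated with soluble CD28 protein in blocking buffer, or with blocking buffer alone, and were not washed in between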

T1 sequence (scFv, as listed by the source): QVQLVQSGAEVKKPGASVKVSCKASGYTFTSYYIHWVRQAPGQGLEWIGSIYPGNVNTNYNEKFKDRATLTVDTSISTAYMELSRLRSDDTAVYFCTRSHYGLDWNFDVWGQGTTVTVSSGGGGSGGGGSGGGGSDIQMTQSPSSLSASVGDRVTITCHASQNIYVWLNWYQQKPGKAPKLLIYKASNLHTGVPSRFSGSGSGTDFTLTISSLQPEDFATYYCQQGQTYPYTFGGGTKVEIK
T2 sequence (scFv, as listed by the source): as above

| Binder | CD28 scFv signal [1] | CD28 scFv signal in presence of CD28 [2] | CD28 scFv signal in presence of CD28 [3] | CD28 scFv signal [4] |
| --- | --- | --- | --- | --- |
| B1 | 0.086 | 0.081 |  |  |
| B2 | 0.985 | 0.094 |  |  |
| B3 |  |  | 0.203 | 2.29 |
| B4 |  |  | 0.32 | 2.3 |
| B5 |  |  | 0.609 | 2.35 |
| B6 | 1.92 | 0.129 |  |  |
| B7 |  |  | 0.157 | 2.35 |
| B8 | 0.158 | 0.088 |  |  |
| B9 |  |  | 0.248 | 2.37 |
| B10 | 1.31 | 0.143 |  |  |
| B11 |  |  | 0.163 | 2.17 |
| B12 | 0.586 | 0.108 |  |  |
| B13 |  |  | 0.606 | 2.24 |
| B14 |  |  | 0.209 | 2.35 |
| B15 |  |  | 0.198 | 2.32 |
| B16 | 0.2 | 0.078 |  |  |
| B17 | 0.074 | 0.072 |  |  |
| B18 | 0.181 | 0.068 |  |  |

| Binder | CD28 scFv signal [1] | CD28 scFv signal in presence of CD28 [2] | CD28 scFv signal in presence of CD28 [3] | CD28 scFv signal [4] |
| --- | --- | --- | --- | --- |
| B19 | 1.42 | 0.16 |  |  |
| B20 | 1.5 | 0.172 |  |  |
| B21 | 0.639 | 0.137 |  |  |
| B22 | 0.687 | 0.128 |  |  |
| B23 |  |  | 0.163 | 2.17 |
| B24 |  |  | 0.143 | 2.15 |
| B25 |  |  | 0.376 | 2.21 |
| B26 |  |  | 0.319 | 2.27 |
| B27 | 0.754 | 0.107 |  |  |
| B28 |  |  | 0.138 | 2.22 |
| B29 | 2.2 | 0.126 |  |  |
| B30 |  |  | 0.15 | 2.15 |
| B31 | 0.854 | 0.105 |  |  |
| B32 |  |  | 0.132 | 2.21 |
| B33 | 2.08 | 0.203 |  |  |
| B34 | 2.25 | 0.13 |  |  |
| B35 |  |  | 0.16 | 2.32 |
| B36 |  |  | 0.293 | 2.15 |
